Measurements as given in paper PMC9482650, “Quantitative fragmentomics allow affinity mapping of interactomes” (Nature Communications, 2022).
Positions count from the first letter of the chain named.

Biological target: T1, ARHGAP21, Q5T5U3
T1 sequence (Q5T5U3 45-169, limits assumed, looked up): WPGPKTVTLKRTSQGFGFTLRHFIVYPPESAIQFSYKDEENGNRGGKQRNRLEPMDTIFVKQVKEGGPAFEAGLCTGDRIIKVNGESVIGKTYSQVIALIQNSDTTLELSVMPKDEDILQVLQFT
Test: holdup assay
Parameters: key: below the threshold = too weak to quantify, mostly under pKd 3.1 to 4
Details: plain residues with an end cap or a label only (N-terminal biotin on a linker: ttds)

Binder | pKd
KKYVDAETSL [SLC4A7, Q9Y6M7] | below the threshold
RLQRRRETQV [HPV18-E6, P06463] | below the threshold

Biological target: DLG1_1, Q12959
Test: holdup assay
Parameters: key: below the threshold = too weak to quantify, mostly under pKd 3.1 to 4
Details: plain residues with an end cap or a label only (N-terminal biotin on a linker: ttds)

Binder | pKd
KKYVDAETSL [SLC4A7, Q9Y6M7] | below the threshold
RLQRRRETQV [HPV18-E6, P06463] | 5.26

Biological target: DLG1_2, Q12959
Test: holdup assay
Parameters: key: below the threshold = too weak to quantify, mostly under pKd 3.1 to 4
Details: plain residues with an end cap or a label only (N-terminal biotin on a linker: ttds)

Binder | pKd
KKYVDAETSL [SLC4A7, Q9Y6M7] | 3.56
RLQRRRETQV [HPV18-E6, P06463] | 5.78

Biological target: DLG1_3, Q12959
Test: holdup assay
Parameters: key: below the threshold = too weak to quantify, mostly under pKd 3.1 to 4
Details: plain residues with an end cap or a label only (N-terminal biotin on a linker: ttds)

Binder | pKd
KKYVDAETSL [SLC4A7, Q9Y6M7] | 3.75
RLQRRRETQV [HPV18-E6, P06463] | 5.02

Biological target: DLG2_2, Q15700
Test: holdup assay
Parameters: key: below the threshold = too weak to quantify, mostly under pKd 3.1 to 4
Details: plain residues with an end cap or a label only (N-terminal biotin on a linker: ttds)

DLG2_2, Q15700, sequence (Q15700 189-283): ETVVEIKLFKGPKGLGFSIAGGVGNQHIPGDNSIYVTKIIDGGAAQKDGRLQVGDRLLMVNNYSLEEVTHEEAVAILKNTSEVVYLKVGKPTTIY

Binder | pKd
KKYVDAETSL [SLC4A7, Q9Y6M7] | below the threshold
RLQRRRETQV [HPV18-E6, P06463] | 5.19

Biological target: T2, DLG3_3, Q92796
T2 sequence (Q92796 374-475, limits assumed, looked up): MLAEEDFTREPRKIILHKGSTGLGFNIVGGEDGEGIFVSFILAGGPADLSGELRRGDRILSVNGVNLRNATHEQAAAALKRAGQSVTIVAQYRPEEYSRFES
Test: holdup assay
Parameters: key: below the threshold = too weak to quantify, mostly under pKd 3.1 to 4
Details: plain residues with an end cap or a label only (N-terminal biotin on a linker: ttds)

Binder | pKd
KKYVDAETSL [SLC4A7, Q9Y6M7] | 3.79
RLQRRRETQV [HPV18-E6, P06463] | 5.44

Biological target: FRMPD4, Q14CM0
Test: holdup assay
Parameters: key: below the threshold = too weak to quantify, mostly under pKd 3.1 to 4
Details: plain residues with an end cap or a label only (N-terminal biotin on a linker: ttds)

FRMPD4, Q14CM0, sequence (Q14CM0 67-160): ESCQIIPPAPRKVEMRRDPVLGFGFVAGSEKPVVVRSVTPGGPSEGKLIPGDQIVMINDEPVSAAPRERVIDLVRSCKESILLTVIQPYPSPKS

Binder | pKd
KKYVDAETSL [SLC4A7, Q9Y6M7] | 4.4
RLQRRRETQV [HPV18-E6, P06463] | below the threshold

Biological target: GRASP, Q7Z6J2
Test: holdup assay
Parameters: key: below the threshold = too weak to quantify, mostly under pKd 3.1 to 4
Details: plain residues with an end cap or a label only (N-terminal biotin on a linker: ttds)

GRASP, Q7Z6J2, sequence (Q7Z6J2 96-193): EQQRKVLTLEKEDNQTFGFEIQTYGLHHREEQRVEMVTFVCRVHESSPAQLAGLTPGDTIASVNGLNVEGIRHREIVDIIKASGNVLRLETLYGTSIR

Binder | pKd
KKYVDAETSL [SLC4A7, Q9Y6M7] | 3.73
RLQRRRETQV [HPV18-E6, P06463] | below the threshold

Biological target: GRIP2_3, Q9C0E4
Test: holdup assay
Parameters: key: below the threshold = too weak to quantify, mostly under pKd 3.1 to 4
Details: plain residues with an end cap or a label only (N-terminal biotin on a linker: ttds)

GRIP2_3, Q9C0E4, sequence (Q9C0E4 238-339): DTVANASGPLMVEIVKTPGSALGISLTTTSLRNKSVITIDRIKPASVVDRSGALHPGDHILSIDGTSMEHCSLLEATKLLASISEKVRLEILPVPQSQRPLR

Binder | pKd
KKYVDAETSL [SLC4A7, Q9Y6M7] | below the threshold
RLQRRRETQV [HPV18-E6, P06463] | below the threshold

Biological target: GRIP2_5, Q9C0E4
Test: holdup assay
Parameters: key: below the threshold = too weak to quantify, mostly under pKd 3.1 to 4
Details: plain residues with an end cap or a label only (N-terminal biotin on a linker: ttds)

GRIP2_5, Q9C0E4, sequence (Q9C0E4 544-642): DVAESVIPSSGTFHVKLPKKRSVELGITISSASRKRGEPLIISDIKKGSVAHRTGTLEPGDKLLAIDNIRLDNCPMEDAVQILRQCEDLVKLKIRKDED

Binder | pKd
KKYVDAETSL [SLC4A7, Q9Y6M7] | below the threshold
RLQRRRETQV [HPV18-E6, P06463] | below the threshold

Biological target: GRIP2_7, Q9C0E4
Test: holdup assay
Parameters: key: below the threshold = too weak to quantify, mostly under pKd 3.1 to 4
Details: plain residues with an end cap or a label only (N-terminal biotin on a linker: ttds)

GRIP2_7, Q9C0E4, sequence (Q9C0E4 934-1023): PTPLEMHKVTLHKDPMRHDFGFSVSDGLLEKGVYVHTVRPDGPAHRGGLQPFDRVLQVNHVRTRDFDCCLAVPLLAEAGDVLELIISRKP

Binder | pKd
KKYVDAETSL [SLC4A7, Q9Y6M7] | below the threshold
RLQRRRETQV [HPV18-E6, P06463] | below the threshold

Biological target: IL16_3, Q14005
Test: holdup assay
Parameters: key: below the threshold = too weak to quantify, mostly under pKd 3.1 to 4
Details: plain residues with an end cap or a label only (N-terminal biotin on a linker: ttds)

IL16_3, Q14005, sequence (Q14005 1107-1207): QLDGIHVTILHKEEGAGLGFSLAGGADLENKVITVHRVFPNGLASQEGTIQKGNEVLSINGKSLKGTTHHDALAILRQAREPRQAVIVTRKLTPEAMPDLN

Binder | pKd
KKYVDAETSL [SLC4A7, Q9Y6M7] | below the threshold
RLQRRRETQV [HPV18-E6, P06463] | below the threshold

Biological target: Inadl_10, Q8NI35
Test: holdup assay
Parameters: key: below the threshold = too weak to quantify, mostly under pKd 3.1 to 4
Details: plain residues with an end cap or a label only (N-terminal biotin on a linker: ttds)

Inadl_10, Q8NI35, sequence (Q8NI35 1673-1763): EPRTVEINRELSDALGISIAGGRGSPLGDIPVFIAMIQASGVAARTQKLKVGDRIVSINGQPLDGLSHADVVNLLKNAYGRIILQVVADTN

Binder | pKd
KKYVDAETSL [SLC4A7, Q9Y6M7] | below the threshold
RLQRRRETQV [HPV18-E6, P06463] | below the threshold

Biological target: Inadl_5, Q8NI35
Test: holdup assay
Parameters: key: below the threshold = too weak to quantify, mostly under pKd 3.1 to 4
Details: plain residues with an end cap or a label only (N-terminal biotin on a linker: ttds)

Inadl_5, Q8NI35, sequence (Q8NI35 673-780): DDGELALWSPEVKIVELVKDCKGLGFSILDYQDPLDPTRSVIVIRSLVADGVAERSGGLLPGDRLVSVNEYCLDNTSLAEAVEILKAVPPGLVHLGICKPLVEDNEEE

Binder | pKd
KKYVDAETSL [SLC4A7, Q9Y6M7] | below the threshold
RLQRRRETQV [HPV18-E6, P06463] | 3.52

Biological target: LDB3, O75112
Test: holdup assay
Parameters: key: below the threshold = too weak to quantify, mostly under pKd 3.1 to 4
Details: plain residues with an end cap or a label only (N-terminal biotin on a linker: ttds)

LDB3, O75112, sequence (O75112 1-94): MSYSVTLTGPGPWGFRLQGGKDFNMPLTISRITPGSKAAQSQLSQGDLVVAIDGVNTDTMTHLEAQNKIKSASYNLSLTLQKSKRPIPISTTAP

Binder | pKd
KKYVDAETSL [SLC4A7, Q9Y6M7] | below the threshold
RLQRRRETQV [HPV18-E6, P06463] | below the threshold

Biological target: T3, LIN7A, O14910
T3 sequence (O14910 103-200, limits assumed, looked up): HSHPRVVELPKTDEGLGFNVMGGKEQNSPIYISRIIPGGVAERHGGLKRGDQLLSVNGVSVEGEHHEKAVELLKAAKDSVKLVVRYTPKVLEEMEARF
Test: holdup assay
Parameters: key: below the threshold = too weak to quantify, mostly under pKd 3.1 to 4
Details: plain residues with an end cap or a label only (N-terminal biotin on a linker: ttds)

Binder | pKd
KKYVDAETSL [SLC4A7, Q9Y6M7] | below the threshold
RLQRRRETQV [HPV18-E6, P06463] | 3.4

Biological target: T4, LIN7B, Q9HAP6
T4 sequence (Q9HAP6 88-185, limits assumed, looked up): T3 sequence (O14910 103-200, limits assumed, looked up) with S2A, V20I, I35V, E42D, H65Q, K77Q, D78G, K89R
Test: holdup assay
Parameters: key: below the threshold = too weak to quantify, mostly under pKd 3.1 to 4
Details: plain residues with an end cap or a label only (N-terminal biotin on a linker: ttds)

Binder | pKd
KKYVDAETSL [SLC4A7, Q9Y6M7] | 3.53
RLQRRRETQV [HPV18-E6, P06463] | 3.58

Biological target: LNX1_3, Q8TBB1
Test: holdup assay
Parameters: key: below the threshold = too weak to quantify, mostly under pKd 3.1 to 4
Details: plain residues with an end cap or a label only (N-terminal biotin on a linker: ttds)

LNX1_3, Q8TBB1, sequence (Q8TBB1 500-596): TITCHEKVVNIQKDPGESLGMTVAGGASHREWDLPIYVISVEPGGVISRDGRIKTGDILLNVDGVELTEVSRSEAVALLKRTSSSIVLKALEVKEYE

Binder | pKd
KKYVDAETSL [SLC4A7, Q9Y6M7] | below the threshold
RLQRRRETQV [HPV18-E6, P06463] | below the threshold

Biological target: MAGI3_2, Q5TCQ9
Test: holdup assay
Parameters: key: below the threshold = too weak to quantify, mostly under pKd 3.1 to 4
Details: plain residues with an end cap or a label only (N-terminal biotin on a linker: ttds)

MAGI3_2, Q5TCQ9, sequence (Q5TCQ9 398-503): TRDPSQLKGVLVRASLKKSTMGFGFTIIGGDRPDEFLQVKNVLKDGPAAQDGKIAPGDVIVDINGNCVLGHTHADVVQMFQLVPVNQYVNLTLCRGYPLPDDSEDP

Binder | pKd
KKYVDAETSL [SLC4A7, Q9Y6M7] | below the threshold
RLQRRRETQV [HPV18-E6, P06463] | 5.56

Biological target: MAST2, Q6P0Q8
Test: holdup assay
Parameters: key: below the threshold = too weak to quantify, mostly under pKd 3.1 to 4
Details: plain residues with an end cap or a label only (N-terminal biotin on a linker: ttds)

MAST2, Q6P0Q8, sequence (Q6P0Q8 1099-1202): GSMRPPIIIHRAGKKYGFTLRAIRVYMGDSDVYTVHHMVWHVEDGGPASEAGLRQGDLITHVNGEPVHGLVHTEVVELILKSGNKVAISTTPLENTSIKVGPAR

Binder | pKd
KKYVDAETSL [SLC4A7, Q9Y6M7] | 6.38
RLQRRRETQV [HPV18-E6, P06463] | 4.78

Biological target: T5, MPDZ_5, O75970
T5 sequence (O75970 695-796, limits assumed, looked up): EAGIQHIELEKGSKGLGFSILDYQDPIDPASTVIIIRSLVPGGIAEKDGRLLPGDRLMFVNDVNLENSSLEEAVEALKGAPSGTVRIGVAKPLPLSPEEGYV
Test: holdup assay
Parameters: key: below the threshold = too weak to quantify, mostly under pKd 3.1 to 4
Details: plain residues with an end cap or a label only (N-terminal biotin on a linker: ttds)

Binder | pKd
KKYVDAETSL [SLC4A7, Q9Y6M7] | below the threshold
RLQRRRETQV [HPV18-E6, P06463] | below the threshold

Biological target: T6, PARD3B_1, Q8TEW8
T6 sequence (Q8TEW8 196-299, limits assumed, looked up): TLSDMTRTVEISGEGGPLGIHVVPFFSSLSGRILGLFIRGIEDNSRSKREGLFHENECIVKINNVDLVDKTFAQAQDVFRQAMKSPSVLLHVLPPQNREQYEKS
Test: holdup assay
Parameters: key: below the threshold = too weak to quantify, mostly under pKd 3.1 to 4
Details: plain residues with an end cap or a label only (N-terminal biotin on a linker: ttds)

Binder | pKd
KKYVDAETSL [SLC4A7, Q9Y6M7] | 3.65
RLQRRRETQV [HPV18-E6, P06463] | below the threshold

Biological target: T7, PCLO, Q9Y6V0
T7 sequence (Q9Y6V0 4491-4600, limits assumed, looked up): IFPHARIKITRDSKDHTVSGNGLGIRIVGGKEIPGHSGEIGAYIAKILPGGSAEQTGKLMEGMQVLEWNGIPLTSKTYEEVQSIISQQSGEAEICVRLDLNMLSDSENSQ
Test: holdup assay
Parameters: key: below the threshold = too weak to quantify, mostly under pKd 3.1 to 4
Details: plain residues with an end cap or a label only (N-terminal biotin on a linker: ttds)

Binder | pKd
KKYVDAETSL [SLC4A7, Q9Y6M7] | below the threshold
RLQRRRETQV [HPV18-E6, P06463] | below the threshold

Biological target: T8, PDZD7_3, Q9H5P4
T8 sequence (Q9H5P4 857-944, limits assumed, looked up): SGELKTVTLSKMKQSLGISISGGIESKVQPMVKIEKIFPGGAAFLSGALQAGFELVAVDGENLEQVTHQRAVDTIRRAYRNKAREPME
Test: holdup assay
Parameters: key: below the threshold = too weak to quantify, mostly under pKd 3.1 to 4
Details: plain residues with an end cap or a label only (N-terminal biotin on a linker: ttds)

Binder | pKd
KKYVDAETSL [SLC4A7, Q9Y6M7] | 3.77
RLQRRRETQV [HPV18-E6, P06463] | 3.98

Biological target: PICK1, Q9NRD5
Test: holdup assay
Parameters: key: below the threshold = too weak to quantify, mostly under pKd 3.1 to 4
Details: plain residues with an end cap or a label only (N-terminal biotin on a linker: ttds)

PICK1, Q9NRD5, sequence (Q9NRD5 17-115): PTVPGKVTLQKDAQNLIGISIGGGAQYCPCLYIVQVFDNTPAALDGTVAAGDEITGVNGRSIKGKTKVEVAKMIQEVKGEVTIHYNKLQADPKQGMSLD

Binder | pKd
KKYVDAETSL [SLC4A7, Q9Y6M7] | below the threshold
RLQRRRETQV [HPV18-E6, P06463] | below the threshold

Biological target: T9, SNTG2, Q9NY99
T9 sequence (Q9NY99 68-166, limits assumed, looked up): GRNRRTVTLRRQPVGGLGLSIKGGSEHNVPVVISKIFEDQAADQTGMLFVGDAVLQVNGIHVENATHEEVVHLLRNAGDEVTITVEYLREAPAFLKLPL
Test: holdup assay
Parameters: key: below the threshold = too weak to quantify, mostly under pKd 3.1 to 4
Details: plain residues with an end cap or a label only (N-terminal biotin on a linker: ttds)

Binder | pKd
KKYVDAETSL [SLC4A7, Q9Y6M7] | 4.33
RLQRRRETQV [HPV18-E6, P06463] | 4.03

Biological target: TJP1_3, Q07157
Test: holdup assay
Parameters: key: below the threshold = too weak to quantify, mostly under pKd 3.1 to 4
Details: plain residues with an end cap or a label only (N-terminal biotin on a linker: ttds)

TJP1_3, Q07157, sequence (Q07157 416-512): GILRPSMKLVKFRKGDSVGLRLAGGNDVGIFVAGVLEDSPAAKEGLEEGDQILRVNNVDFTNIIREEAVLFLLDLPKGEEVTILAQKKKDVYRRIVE

Binder | pKd
KKYVDAETSL [SLC4A7, Q9Y6M7] | below the threshold
RLQRRRETQV [HPV18-E6, P06463] | below the threshold

Biological target: T10, TX1BP3, O14907
T10 sequence (O14907 10-122, limits assumed, looked up): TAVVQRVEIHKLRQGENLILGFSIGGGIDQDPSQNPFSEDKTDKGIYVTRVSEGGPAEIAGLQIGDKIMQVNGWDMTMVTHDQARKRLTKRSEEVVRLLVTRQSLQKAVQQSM
Test: holdup assay
Parameters: key: below the threshold = too weak to quantify, mostly under pKd 3.1 to 4
Details: plain residues with an end cap or a label only (N-terminal biotin on a linker: ttds)

Binder | pKd
KKYVDAETSL [SLC4A7, Q9Y6M7] | 3.82
RLQRRRETQV [HPV18-E6, P06463] | 4.67
